Patent US9035023B2, “Bombesin analog peptide antagonist conjugates” (Piramal Imaging, SA, priority 2008, dated 2015)

Assays:
GRP receptor [1] = molecular target: T1, GRP receptor (Homo sapiens, UniProt P30550); experiment: Immunofluorescence microscopy based internalization assay with HEK-GRPR cells; type: cell-based; set-up: expressed in transfected cells; host or cells: HEK293; conditions: for antagonism of bombesin-induced GRP receptor internalization: 10 nmol/L bombesin + 1 μmol/L analogue; for antagonism of bombesin-induced GRP receptor internalization / GRP receptor internalization, given alone: 30 min; for GRP receptor internalization, given alone: 1 μmol/L
Method: Briefly, HEK-GRPR cells were grown on poly-D-lysine (20 μg/ml) (Sigma-Aldrich, St. Louis, Mo.) coated 35 mm four-well plates (Cellstar, Greiner Bio-One GmbH, Frickenhausen, Germany). […] The cells were imaged using a Leica DM RB immunofluorescence microscope and an Olympus DP10 camera.
Following incubation with the peptides, the cells were processed for immunocytochemistry as described in above.

PC-3 tumor [2] = experiment: Biodistribution in PC-3 tumor bearing nude mice
Method: Eleven days after inoculation the mice were injected into the tail vein with 10 pmol of radiolabeled peptides (about 0.18 MBq), diluted in NaCl (0.1% bovine serum albumin, pH 7.4, total injected volume=100 μL).

GRP receptor [3] = molecular target: T1, GRP receptor; conditions: cited from earlier work
GRP receptor [4] = molecular target: T1, GRP receptor; experiment: GRP receptor binding affinity by in vitro receptor autoradiography; set-up: host or cells: PC3 cells; conditions: read-out: BINDING IC50 (nM) mean ± SEM
Method: The GRP receptor binding affinity of the various compounds was determined by in vitro receptor autoradiography on cryostat sections of either well characterized prostate carcinomas, or on sections from HEK-GRPR or PC3 cell pellets as described previously (Markwalder et al., Can. Res., 1999; 59, 1152-1159; Reubi et al., Eur. J. Nucl. Med., 2000; 27: 273-282; Reubi et al., Clin. Cancer Res. 2002; 8 1139-1146).

GRP receptor [5] = molecular target: T1, GRP receptor; experiment: Calcium release assay in PC3 cells (Fluo-4NW); type: cell-based; set-up: host or cells: PC3 cells
Method: In brief, PC3 cells were seeded (10,000 cells per well) in 96 well plates and cultured for 2 day at 37° C. and 5% CO2 in culture medium. At the day of the experiment, the cells were washed with assay buffer (1×HBSS, 20 mM HEPES) containing 2.5 mM probenecid, and then loaded with 100 μL/well Fluo-4NW dye in assay buffer containing 2.5 mM probenecid for 30 min at 37° C. and 5% CO2 and then for further 30 min at room temperature. […] Intracellular calcium mobilization was recorded in a kinetic for 60 sec at room temperature monitoring fluorescence emission at 520 nm (with λex=485 nm) in the presence of the analogues at the concentrations indicated. […] Baseline (F-baseline) measurements were taken for dye-loaded, untreated cells. […] All experiments were repeated at least three times in triplicate.

PC-3 tumor [6] = tested on: PC-3 tumor
[7] = 100 μg bombesin or non-radioactive Compound 2

T1 sequence (P30550 whole entry): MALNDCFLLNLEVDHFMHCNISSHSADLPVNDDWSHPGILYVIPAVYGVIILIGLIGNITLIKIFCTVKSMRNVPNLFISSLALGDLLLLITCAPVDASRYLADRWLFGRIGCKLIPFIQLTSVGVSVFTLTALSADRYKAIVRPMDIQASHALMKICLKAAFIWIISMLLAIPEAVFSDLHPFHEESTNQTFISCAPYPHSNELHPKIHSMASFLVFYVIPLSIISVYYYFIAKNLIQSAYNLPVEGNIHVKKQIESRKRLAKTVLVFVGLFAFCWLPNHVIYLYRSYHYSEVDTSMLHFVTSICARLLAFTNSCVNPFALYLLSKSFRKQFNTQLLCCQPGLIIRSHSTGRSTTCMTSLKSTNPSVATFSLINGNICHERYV

For “[D-Phe^6, Leu-NHEt^13, des-Met^14]-bombesin(6-14) [GRPR-ANTAG, reference compound]”, the “antagonism of bombesin-induced GRP receptor internalization” value (GRP receptor [1]) was “efficiently antagonized” and the “GRP receptor internalization, given alone” value (GRP receptor [1]) was “no effect on GRP receptor internalization”.

In the case of “^111In-DOTA-(15-amino-4,7,10,13-tetraoxapentadecanoic acid)-(4-amino-1-carboxy-methyl-piperidine)-D-Phe-Gln-Trp-Ala-Val-Gly-His-Sta-Leu-NH2 [^111In-Compound 5]”, the “biodistribution, adrenal” value (PC-3 tumor [2]; 1 h) is reported as 3.63 ± 0.53, the “biodistribution, blood” value (PC-3 tumor [2]; 1 h) is reported as 0.75 ± 0.21 and the “biodistribution, bone” value (PC-3 tumor [2]; 1 h) is reported as 0.34 ± 0.04. The “biodistribution, heart” value (PC-3 tumor [2]; 1 h) was 0.28 ± 0.06, the “biodistribution, intestine” value (PC-3 tumor [2]; 1 h) was 2.39 ± 0.42 and the “biodistribution, kidney” value (PC-3 tumor [2]; 1 h) was 5.08 ± 0.72. For the same compound, the “biodistribution, liver” value (PC-3 tumor [2]; 1 h) was 0.40 ± 0.09, the “biodistribution, lung” value (PC-3 tumor [2]; 1 h) was 0.62 ± 0.15 and the “biodistribution, muscle” value (PC-3 tumor [2]; 1 h) was 0.19 ± 0.07. For the same compound, the “biodistribution, pancreas” value (PC-3 tumor [2]; 1 h) was 26.83 ± 4.34, the “biodistribution, pituitary” value (PC-3 tumor [2]; 1 h) was 9.02 ± 0.99 and the “biodistribution, spleen” value (PC-3 tumor [2]; 1 h) was 0.80 ± 0.28. For the same compound, the “biodistribution, stomach” value (PC-3 tumor [2]; 1 h) was 3.92 ± 1.26, the “biodistribution, tumor” value (PC-3 tumor [2]; 1 h) was 10.27 ± 0.36 and the “tumor:blood” value (PC-3 tumor [2]; 1 h) was 13.73. The “tumor:bone” value (PC-3 tumor [2]; 1 h) was 29.93, the “tumor:kidney” value (PC-3 tumor [2]; 1 h) was 2.02 and the “tumor:muscle” value (PC-3 tumor [2]; 1 h) was 53.65. The “tumor:pancreas” value (PC-3 tumor [2]; 1 h) was 0.38, the “biodistribution, adrenal” value (PC-3 tumor [2]; 4 h) was 0.68 ± 0.31 and the “biodistribution, blood” value (PC-3 tumor [2]; 4 h) was 0.03 ± 0.01. The “biodistribution, bone” value (PC-3 tumor [2]; 4 h) was 0.08 ± 0.02, the “biodistribution, heart” value (PC-3 tumor [2]; 4 h) was 0.03 ± 0.01 and the “biodistribution, intestine” value (PC-3 tumor [2]; 4 h) was 0.17 ± 0.10. For the same compound, the “biodistribution, kidney” value (PC-3 tumor [2]; 4 h) was 2.04 ± 0.15, the “biodistribution, liver” value (PC-3 tumor [2]; 4 h) was 0.15 ± 0.05 and the “biodistribution, lung” value (PC-3 tumor [2]; 4 h) was 0.15 ± 0.19. For the same compound, the “biodistribution, muscle” value (PC-3 tumor [2]; 4 h) was 0.02 ± 0.00, the “biodistribution, pancreas” value (PC-3 tumor [2]; 4 h) was 1.36 ± 0.81 and the “biodistribution, pituitary” value (PC-3 tumor [2]; 4 h) was 0.38 ± 0.16. For the same compound, the “biodistribution, spleen” value (PC-3 tumor [2]; 4 h) was 0.09 ± 0.03, the “biodistribution, stomach” value (PC-3 tumor [2]; 4 h) was 0.87 ± 0.58 and the “biodistribution, tumor” value (PC-3 tumor [2]; 4 h) was 9.35 ± 0.73. For the same compound, the “tumor:blood” value (PC-3 tumor [2]; 4 h) was 319.66, the “tumor:bone” value (PC-3 tumor [2]; 4 h) was 124.55 and the “tumor:kidney” value (PC-3 tumor [2]; 4 h) was 4.59. The “tumor:muscle” value (PC-3 tumor [2]; 4 h) was 475.17, the “tumor:pancreas” value (PC-3 tumor [2]; 4 h) was 6.90 and the “biodistribution, adrenal” value (PC-3 tumor [2]; 4 h blocking, 2000 fold) was 0.07 ± 0.02. The “biodistribution, blood” value (PC-3 tumor [2]; 4 h blocking, 2000 fold) was 0.02 ± 0.00, the “biodistribution, bone” value (PC-3 tumor [2]; 4 h blocking, 2000 fold) was 0.03 ± 0.03 and the “biodistribution, heart” value (PC-3 tumor [2]; 4 h blocking, 2000 fold) was 0.02 ± 0.00. For the same compound, the “biodistribution, intestine” value (PC-3 tumor [2]; 4 h blocking, 2000 fold) was 0.03 ± 0.01, the “biodistribution, kidney” value (PC-3 tumor [2]; 4 h blocking, 2000 fold) was 1.76 ± 0.36 and the “biodistribution, liver” value (PC-3 tumor [2]; 4 h blocking, 2000 fold) was 0.14 ± 0.01. For the same compound, the “biodistribution, lung” value (PC-3 tumor [2]; 4 h blocking, 2000 fold) was 0.05 ± 0.01, the “biodistribution, muscle” value (PC-3 tumor [2]; 4 h blocking, 2000 fold) was 0.01 ± 0.00 and the “biodistribution, pancreas” value (PC-3 tumor [2]; 4 h blocking, 2000 fold) was 0.06 ± 0.02. For the same compound, the “biodistribution, pituitary” value (PC-3 tumor [2]; 4 h blocking, 2000 fold) was 0.23 ± 0.14, the “biodistribution, spleen” value (PC-3 tumor [2]; 4 h blocking, 2000 fold) was 0.06 ± 0.01 and the “biodistribution, stomach” value (PC-3 tumor [2]; 4 h blocking, 2000 fold) was 0.06 ± 0.01. For the same compound, the “biodistribution, tumor” value (PC-3 tumor [2]; 4 h blocking, 2000 fold) was 0.61 ± 0.07, the “biodistribution, adrenal” value (PC-3 tumor [2]; 24 h) was 0.62 ± 0.16 and the “biodistribution, blood” value (PC-3 tumor [2]; 24 h) was 0.01 ± 0.00. For the same compound, the “biodistribution, bone” value (PC-3 tumor [2]; 24 h) was 0.08 ± 0.02, the “biodistribution, heart” value (PC-3 tumor [2]; 24 h) was 0.02 ± 0.00 and the “biodistribution, intestine” value (PC-3 tumor [2]; 24 h) was 0.05 ± 0.02. The “biodistribution, kidney” value (PC-3 tumor [2]; 24 h) was 1.37 ± 0.22, the “biodistribution, liver” value (PC-3 tumor [2]; 24 h) was 0.11 ± 0.02 and the “biodistribution, lung” value (PC-3 tumor [2]; 24 h) was 0.51 ± 0.73. For the same compound, the “biodistribution, muscle” value (PC-3 tumor [2]; 24 h) was 0.02 ± 0.00, the “biodistribution, pancreas” value (PC-3 tumor [2]; 24 h) was 0.33 ± 0.05 and the “biodistribution, pituitary” value (PC-3 tumor [2]; 24 h) was 0.46 ± 0.52. For the same compound, the “biodistribution, spleen” value (PC-3 tumor [2]; 24 h) was 0.07 ± 0.01, the “biodistribution, stomach” value (PC-3 tumor [2]; 24 h) was 0.05 ± 0.01 and the “biodistribution, tumor” value (PC-3 tumor [2]; 24 h) was 6.33 ± 0.76. For the same compound, the “tumor:blood” value (PC-3 tumor [2]; 24 h) was 1155.51, the “tumor:bone” value (PC-3 tumor [2]; 24 h) was 76.65 and the “tumor:kidney” value (PC-3 tumor [2]; 24 h) was 4.62. For the same compound, the “tumor:muscle” value (PC-3 tumor [2]; 24 h) was 364.92 and the “tumor:pancreas” value (PC-3 tumor [2]; 24 h) was 19.16.

For “^177Lu-DOTA-Gly-4-aminobenzoyl-Gln-Trp-Ala-Val-Gly-His-Leu-Met-NH2 [Compound L70]”, the agonist/antagonist behaviour (GRP receptor [3]) is listed as “behaved as an agonist”.

With `CC(C)C[C@H](NC(=O)C[C@H](O)[C@H](CC(C)C)NC(=O)[C@H](Cc1c[nH]cn1)NC(=O)CNC(=O)[C@@H](NC(=O)[C@H](C)NC(=O)[C@H](Cc1c[nH]c2ccccc12)NC(=O)[C@H](CCC(N)=O)NC(=O)[C@@H](Cc1ccccc1)NC(=O)c1ccc(NC(=O)CNC(=O)CN2CCN(CC(=O)O)CCN(CC(=O)O)CCN(CC(=O)O)CC2)cc1)C(C)C)C(N)=O` [Compound 1, DOTA-Gly-aminobenzoyl-D-Phe-Gln-Trp-Ala-Val-Gly-His-Sta-Leu-NH2] the IC50 (GRP receptor [4]) was 30 ± 4.5 nM, the “antagonism of bombesin-induced GRP receptor internalization” value (GRP receptor [1]) was “efficiently antagonized” and the “GRP receptor internalization, given alone” value (GRP receptor [1]) was “no effect on GRP receptor internalization”. For the same compound, the “effect on calcium release, tested alone” value (GRP receptor [5]; 1 μmol/L and 10 μmol/L) was “no effect on calcium release”.

For `CC(C)C[C@H](NC(=O)C[C@H](O)[C@H](CC(C)C)NC(=O)[C@H](Cc1c[nH]cn1)NC(=O)CNC(=O)[C@@H](NC(=O)[C@H](C)NC(=O)[C@H](Cc1c[nH]c2ccccc12)NC(=O)[C@H](CCC(N)=O)NC(=O)[C@@H](Cc1ccccc1)NC(=O)c1ccc(NC(=O)CNC(=O)CN2CCN(CC(=O)O)CCN(CC(=O)O)CCN(CC(=O)O)CC2)cc1)C(C)C)C(N)=O` [^115In-1], the IC50 (GRP receptor [4]) was 16 ± 5.3 nM, the Receptor internalization (GRP receptor [1]; HEK-GRPR cells) was “Antag/no agonist” and the “Signaling Ca++ mobilization” value (GRP receptor [5]) was “ANTAG/no agonist effect”.

In the case of “^68Ga-DOTA-4-amino-1-carboxymethyl-piperidine-D-Phe-Gln-Trp-Ala-Val-Gly-His-Sta-Leu-NH2 [^68Ga-COMPOUND 2]”, the “blocking of tumor contrast” value (LNCaP tumor; [7]) is reported as “effectively blocked”, the tumor contrast (LNCaP tumor; 1 h after injection of 10 MBq) is reported as “High tumor-contrast” and the “blocking of tumor contrast” value (PC-3 tumor [6]; [7]) is reported as “effectively blocked”. For the same compound, the tumor contrast (PC-3 tumor [6]; 1 h after injection of 10 MBq) was “High tumor-contrast”.
